From patent US20050106647A1
Where two headings read alike, the source gives them in different places.

What was measured:
[1] = target: PA-BODIPY conjugate (Bacillus anthracis protective antigen conjugated to BODIPY FL) (Bacillus anthracis) (UniProt P13423)
[2] = target: PA-BODIPY conjugate (Bacillus anthracis protective antigen conjugated to BODIPY FL) (Bacillus anthracis) (UniProt P13423); remark: listed apart in the source

Chain of PA-BODIPY conjugate (Bacillus anthracis protective antigen conjugated to BODIPY FL) (Bacillus anthracis) (P13423 30-764 limits assumed): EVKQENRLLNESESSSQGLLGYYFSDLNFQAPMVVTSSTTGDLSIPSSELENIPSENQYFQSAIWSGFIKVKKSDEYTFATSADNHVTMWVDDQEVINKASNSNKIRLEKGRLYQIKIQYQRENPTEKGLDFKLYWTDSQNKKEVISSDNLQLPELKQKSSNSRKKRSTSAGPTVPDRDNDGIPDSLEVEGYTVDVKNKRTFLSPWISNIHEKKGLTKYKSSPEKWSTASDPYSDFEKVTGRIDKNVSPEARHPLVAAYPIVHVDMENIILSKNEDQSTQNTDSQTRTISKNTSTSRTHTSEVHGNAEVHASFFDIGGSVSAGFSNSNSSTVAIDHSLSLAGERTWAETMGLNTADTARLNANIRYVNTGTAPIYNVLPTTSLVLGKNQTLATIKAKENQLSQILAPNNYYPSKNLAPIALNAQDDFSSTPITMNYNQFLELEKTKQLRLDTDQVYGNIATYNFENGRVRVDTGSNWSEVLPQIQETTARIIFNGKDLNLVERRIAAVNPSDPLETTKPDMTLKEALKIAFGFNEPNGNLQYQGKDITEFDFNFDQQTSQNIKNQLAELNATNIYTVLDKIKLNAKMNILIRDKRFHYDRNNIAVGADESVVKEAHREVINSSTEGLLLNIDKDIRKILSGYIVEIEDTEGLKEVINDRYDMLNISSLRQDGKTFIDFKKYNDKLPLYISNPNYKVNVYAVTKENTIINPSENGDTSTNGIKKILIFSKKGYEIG
Chain of NlpA-[Dig scFv] (26-10 anti-digoxin/digoxigenin scFv) fusion anchored on the E. coli inner membrane (P04846 whole entry, looked up, the tested form may be a part): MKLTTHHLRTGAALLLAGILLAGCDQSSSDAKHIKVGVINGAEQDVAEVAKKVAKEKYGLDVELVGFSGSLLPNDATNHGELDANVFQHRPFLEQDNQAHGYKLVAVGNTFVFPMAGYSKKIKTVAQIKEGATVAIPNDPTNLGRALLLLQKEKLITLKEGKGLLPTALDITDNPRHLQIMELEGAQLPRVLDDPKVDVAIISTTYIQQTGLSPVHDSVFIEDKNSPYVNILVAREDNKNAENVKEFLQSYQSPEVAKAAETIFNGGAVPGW
Chain of 26-10 anti-digoxin/digoxigenin scFv-g3p fusion (pAK200) (P69168 268-424): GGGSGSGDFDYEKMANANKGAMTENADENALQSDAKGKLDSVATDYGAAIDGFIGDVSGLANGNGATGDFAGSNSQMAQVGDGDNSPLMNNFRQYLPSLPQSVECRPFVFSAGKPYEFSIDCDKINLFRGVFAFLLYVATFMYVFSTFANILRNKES

Substance	mean fluorescence (M) [1]	mean fluorescence (M) [2]
NlpA-[Dig scFv] (26-10 anti-digoxin/digoxigenin scFv) fusion anchored on the E. coli inner membrane (from UniProt P04846 24-29)	2.97	4.48
26-10 anti-digoxin/digoxigenin scFv-g3p fusion (pAK200) (from UniProt P69168 268-424)	–	7.25
